Laboratory results from patent US20220135701A1 (Genentech, published 2022).
Where two headings read alike, the source gives them in different places. Values belong to the molecule of their own block, whether it stands above or below them.

Key:
[1] = target: T1, mouse MerTK on mouse macrophages (mouse, UniProt Q60805 19-994); assay: cell-based or functional assay
T1 sequence (looked up): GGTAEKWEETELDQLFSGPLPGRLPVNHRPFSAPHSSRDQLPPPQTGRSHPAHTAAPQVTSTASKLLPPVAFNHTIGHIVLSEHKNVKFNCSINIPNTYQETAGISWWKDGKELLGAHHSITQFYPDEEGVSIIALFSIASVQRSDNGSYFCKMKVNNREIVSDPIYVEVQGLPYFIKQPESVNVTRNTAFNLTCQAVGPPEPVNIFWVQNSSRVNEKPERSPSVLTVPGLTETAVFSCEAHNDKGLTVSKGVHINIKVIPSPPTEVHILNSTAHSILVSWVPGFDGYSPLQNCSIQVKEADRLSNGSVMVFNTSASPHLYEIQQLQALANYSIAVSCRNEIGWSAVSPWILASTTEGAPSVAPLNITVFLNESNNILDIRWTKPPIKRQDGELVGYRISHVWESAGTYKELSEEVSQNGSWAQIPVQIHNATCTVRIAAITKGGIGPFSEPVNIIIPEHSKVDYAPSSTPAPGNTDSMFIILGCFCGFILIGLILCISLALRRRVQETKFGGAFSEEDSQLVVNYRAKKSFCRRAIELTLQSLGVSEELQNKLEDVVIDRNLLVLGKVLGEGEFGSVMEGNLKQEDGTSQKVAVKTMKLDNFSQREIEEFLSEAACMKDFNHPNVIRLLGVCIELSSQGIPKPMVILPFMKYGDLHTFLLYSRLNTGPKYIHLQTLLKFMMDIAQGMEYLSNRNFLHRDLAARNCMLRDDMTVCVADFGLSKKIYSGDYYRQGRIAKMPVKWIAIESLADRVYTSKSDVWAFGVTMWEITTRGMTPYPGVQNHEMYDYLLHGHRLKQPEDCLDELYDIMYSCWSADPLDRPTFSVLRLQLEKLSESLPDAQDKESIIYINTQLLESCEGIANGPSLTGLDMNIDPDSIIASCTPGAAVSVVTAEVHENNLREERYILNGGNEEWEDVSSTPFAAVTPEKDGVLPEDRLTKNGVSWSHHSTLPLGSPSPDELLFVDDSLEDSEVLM

human MerTK [2] = target: T2, human MerTK (human, UniProt Q12866 26-499); assay: SPR BIAcore T200, Ab captured, 37C
T2 construct: also called HuMER
T2 sequence: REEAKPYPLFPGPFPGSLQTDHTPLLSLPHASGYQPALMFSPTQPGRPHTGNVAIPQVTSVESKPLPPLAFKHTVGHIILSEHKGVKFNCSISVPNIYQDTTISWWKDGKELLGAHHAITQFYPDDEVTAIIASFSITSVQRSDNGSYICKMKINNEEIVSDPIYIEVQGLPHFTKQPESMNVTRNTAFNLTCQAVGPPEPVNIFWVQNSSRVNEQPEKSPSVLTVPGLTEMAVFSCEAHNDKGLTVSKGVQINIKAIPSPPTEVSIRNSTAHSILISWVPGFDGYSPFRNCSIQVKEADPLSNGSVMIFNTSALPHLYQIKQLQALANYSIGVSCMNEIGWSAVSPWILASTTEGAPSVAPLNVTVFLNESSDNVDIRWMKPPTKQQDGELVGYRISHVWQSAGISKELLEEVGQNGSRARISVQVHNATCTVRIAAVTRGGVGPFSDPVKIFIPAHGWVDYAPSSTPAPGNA

human MerTK [3] = target: T2, human MerTK; assay: SPR BIAcore T200, Ab captured, 37C; remark: listed apart in the source
Method in brief: (§1)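 Rabbit or humanized antibody captured to ~100 RU; MerTK injected as 3-fold dilutions from 0.4 nM to 100 nM in HBS-EP (HEPES pH 7.4) at 30 μl/min, at 25° C. or 37° C. kon and koff fitted to a 1:1 Langmuir model; KD = koff/kon.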

cynomolgus monkey MerTK [4] = target: T3, cynomolgus monkey MerTK (cynomolgus monkey, UniProt A0A2K5V1H9 32-505); assay: SPR BIAcore T200, Ab captured, 37C
T3 construct: Soluble analyte in SPR; also called Cyno MerTK
T3 sequence: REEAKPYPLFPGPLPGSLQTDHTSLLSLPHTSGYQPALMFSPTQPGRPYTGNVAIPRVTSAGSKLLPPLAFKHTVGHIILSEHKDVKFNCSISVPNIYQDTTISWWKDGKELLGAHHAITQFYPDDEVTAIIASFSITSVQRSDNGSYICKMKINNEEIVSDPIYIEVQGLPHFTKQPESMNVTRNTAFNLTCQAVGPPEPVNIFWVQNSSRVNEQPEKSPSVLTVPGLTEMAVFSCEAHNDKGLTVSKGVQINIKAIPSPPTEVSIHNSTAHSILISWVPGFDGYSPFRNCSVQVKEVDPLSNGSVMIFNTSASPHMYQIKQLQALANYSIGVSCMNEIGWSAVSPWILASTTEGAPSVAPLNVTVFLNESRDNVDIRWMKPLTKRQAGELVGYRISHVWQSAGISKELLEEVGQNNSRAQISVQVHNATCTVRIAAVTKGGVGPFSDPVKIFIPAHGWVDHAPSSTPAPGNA
Method in brief: as §1

human MerTK [5] = target: T2, human MerTK; assay: SPR BIAcore T200, Ab captured, 37C; remark: listed apart in the source
Protocol: (§2) All binding affinity determinations were obtained using Surface Plasmon Resonance (SPR) measurements from a BIAcore™-T200 instrument. Briefly, each rabbit or humanized antibody was captured to achieve approximately 100 RU (Response Units). Then, 3-fold serial dilutions of MerTK from various species (0.4 nM to 100 nM) diluted in HBS-EP buffer (0.01M HEPES pH 7.4, 0.15M NaCl, 3 mM EDTA and 0.05% v/v surfactant P20) was injected into the BIAcore™-T200 instrument at 25° C. or 37° C. with a flow rate of 30 μl/min. Association rates (kₒₙ) and dissociation rates (koff) were calculated using a simple one-to-one Langmuir binding model (BIAcore T200 evaluation software version 2.0). The equilibrium dissociation constant (KD) was calculated as the ratio koff/kₒₙ.

cynomolgus monkey MerTK [6] = target: T3, cynomolgus monkey MerTK; assay: SPR BIAcore T200, Ab captured, 37C; remark: listed apart in the source
Protocol: as §2

human MerTK [7] = target: T2, human MerTK; assay: SPR BIAcore T200, Ab captured, 37C; remark: listed apart in the source
Protocol: as §2

cynomolgus monkey MerTK [8] = target: T3, cynomolgus monkey MerTK; assay: SPR BIAcore T200, Ab captured, 37C; remark: listed apart in the source
Protocol: as §2

rat MerTK [9] = target: T4, rat MerTK (rat, UniProt P57097 23-496, limits assumed); assay: SPR BIAcore T200, Ab captured, 37C
T4 construct: Soluble analyte in SPR
T4 sequence (looked up): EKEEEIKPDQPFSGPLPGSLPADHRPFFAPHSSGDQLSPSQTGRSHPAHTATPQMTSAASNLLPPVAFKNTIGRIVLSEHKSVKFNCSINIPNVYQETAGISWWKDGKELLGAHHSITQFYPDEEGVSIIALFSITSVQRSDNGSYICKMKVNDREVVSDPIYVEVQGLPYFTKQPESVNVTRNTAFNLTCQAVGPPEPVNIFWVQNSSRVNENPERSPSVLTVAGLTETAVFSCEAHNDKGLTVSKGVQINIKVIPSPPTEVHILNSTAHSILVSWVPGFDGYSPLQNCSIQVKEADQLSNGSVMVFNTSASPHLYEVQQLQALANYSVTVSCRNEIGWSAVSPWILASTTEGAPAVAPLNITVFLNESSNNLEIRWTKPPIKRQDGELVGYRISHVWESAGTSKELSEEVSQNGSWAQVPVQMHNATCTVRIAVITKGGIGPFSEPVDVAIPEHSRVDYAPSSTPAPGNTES
Protocol: as §2

mouse MerTK [10] = target: T5, mouse MerTK (mouse, UniProt Q60805 23-496); assay: SPR BIAcore T200, Ab captured, 37C
T5 construct: also called MuMER
T5 sequence (looked up): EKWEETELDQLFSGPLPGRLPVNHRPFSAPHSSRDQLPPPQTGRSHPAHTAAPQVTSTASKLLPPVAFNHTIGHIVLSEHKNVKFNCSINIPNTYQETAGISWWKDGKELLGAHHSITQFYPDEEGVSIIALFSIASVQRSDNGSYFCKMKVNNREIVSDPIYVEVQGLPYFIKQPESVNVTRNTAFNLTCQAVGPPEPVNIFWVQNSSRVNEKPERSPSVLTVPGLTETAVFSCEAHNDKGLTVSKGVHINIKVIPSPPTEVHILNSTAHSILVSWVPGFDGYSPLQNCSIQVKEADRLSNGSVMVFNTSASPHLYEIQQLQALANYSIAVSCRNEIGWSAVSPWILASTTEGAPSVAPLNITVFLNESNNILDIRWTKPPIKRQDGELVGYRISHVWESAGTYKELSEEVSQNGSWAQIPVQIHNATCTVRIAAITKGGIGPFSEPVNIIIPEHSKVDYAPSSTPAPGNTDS
Protocol: as §2

rat MerTK [11] = target: T4, rat MerTK; assay: SPR BIAcore T200, Ab captured, 37C; remark: listed apart in the source
Method in brief: as §1

mouse MerTK [12] = target: T5, mouse MerTK; assay: SPR BIAcore T200, Ab captured, 37C; remark: listed apart in the source
Method in brief: as §1

human MerTK [13] = target: T2, human MerTK; assay: SPR BIAcore T200, Ab captured, 25C
Method in brief: as §1

cynomolgus monkey MerTK [14] = target: T3, cynomolgus monkey MerTK; assay: SPR BIAcore T200, Ab captured, 25C
Method in brief: as §1

mouse MerTK [15] = target: T5, mouse MerTK; assay: SPR BIAcore T200, Ab captured, 25C
Method in brief: as §1

HuMER (R26-A499) = target: T6, HuMER (R26-A499) (human, UniProt Q12866 26-499); assay: SPR BIAcore T200, Ab captured, 25C
T6 construct: Extracellular domain with both Ig-like and both fibronectin-like domains; also called human MerTK extracellular domain
T6 sequence: T2 sequence
Method in brief: (§3)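 Rabbit antibody captured to ~100 RU; MerTK domain injected as 3-fold dilutions (0.4–100 nM) in HBS-EP pH 7.4 at 25 °C, 30 μl/min. kon and koff from 1:1 Langmuir fit; KD = koff/kon.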

MuMER (E23-S496) = target: T7, MuMER (E23-S496) (mouse, UniProt Q60805 23-496); assay: SPR BIAcore T200, Ab captured, 25C
T7 construct: range 23-496; also called mouse MerTK extracellular domain
T7 sequence (looked up): T5 sequence (looked up)
Method in brief: as §3

pAKT levels in macrophages incubated with the ligand [1]: 84 pM
Molecule: recombinant human GAS6-Fc protein (from UniProt Q14393 31-678) (Fc fusion)

Kd (human MerTK [2]): 13.8 nM | Kd (human MerTK [7]): 12.9 nM | Kd (cynomolgus monkey MerTK [8]): 5.3 nM | Kd (rat MerTK [9]): 3.3 nM | Kd (mouse MerTK [10]): 1.1 nM | Kd (human MerTK [3]): 11.6 nM | Kd (cynomolgus monkey MerTK [4]): 5.3 nM | Kd (rat MerTK [11]): 3.3 nM | Kd (mouse MerTK [12]): 1 nM
B2: h10C3.v1 (antibody, V domains shown)
VH: EQQLVESGGGLVQPGGSLRLSCAASGFSLSGYTMGWVRQAPGKGLEYIGVISSGGTTYYTNWAKGRFTISKDSSKNTVYLQMGSLRAEDMAVYFCARVAFTAYGGGGFPTLHRLDLWGQGTLVTVSS
VL: DQVLTQSPDSLAVSLGERATINCQSSESVYNNDYLAWYQQKPGQPPKLLIYSASTLASGVPDRFSGSGSGTDFTLTISSLQAEDVAVYYCAGGYLGNNVFGGGTKVEIK
notes: also called h10C3.V1 (Parent); 10C3 Humanized mAb V1

More lines, now with the values behind:

B1: h13B4.v1 (antibody, V domains shown)
VH: EQQLVESGEGLVQPGGSLRLSCAVSGFSLSSYAMGWVRQAPGKGLEWIGIINSYGNTYYANWAKGRFTISRDSSKNTVYLQMGSLRAEDMAVYFCARDPGVSSNLWGPGTLVTVSS
VL: DVQMTQSPSTLSASVGDRVTITCQASQNIYSGLAWYQQKPGKPPKLLIYGASKLASGVPSRFSGSGSGTEFTLTISSLQPDDFATYYCQATYYSSNSVAFGGGTKVEIK
notes: also called h13B4.V1 (Parent); 13B4 Humanized mAb V1
Kd (human MerTK [2]): 4.8 nM | Kd (human MerTK [3]): 4.8 nM | Kd (cynomolgus monkey MerTK [4]): 5.6 nM | Kd (human MerTK [5]): 4.3 nM | Kd (cynomolgus monkey MerTK [6]): 5 nM

B3: Rbt10C3 (antibody, V domains shown)
VH: QSLEESGGRLVTPGTPLTLTCTASGFSLSGYTMGWVRQAPGKGLEYIGVISSGGTTYYTNWAKGRFTISKTSTTVDLKITSPTTEDTATYFCARVAFTAYGGGGFPTLHRLDLWGQGTLVTVSS
VL: AQVLIQTASSVSAAVGGTVTISCQSSESVYNNDYLAWYQQKPGQPPKLLIYSASTLASGVPSRFKGSGSGTQFTLTISDLECDDAATYYCAGGYLGNNVFGGGTEVVVK
notes: Recombinant rabbit monoclonal antibody, Expi293, protein A purified
Kd (human MerTK [13]): 3.4 nM | Kd (cynomolgus monkey MerTK [14]): 3 nM | Kd (mouse MerTK [15]): 0.7 nM | Kd (human MerTK [7]): 9.9 nM | Kd (cynomolgus monkey MerTK [8]): 4.1 nM | Kd (rat MerTK [9]): 2.4 nM | Kd (mouse MerTK [10]): 0.8 nM | Kd (HuMER (R26-A499)): 3.4 nM | Kd (MuMER (E23-S496)): 0.7 nM
